Experimental findings from publication PMC5288196, “Native and engineered tropism of vectors derived from a rare species D adenovirus serotype 43” (Oncotarget, 2016) are described below.

The target of this assay is T1, adenovirus serotype 5 virions (human adenovirus serotype 5).
T1 chain: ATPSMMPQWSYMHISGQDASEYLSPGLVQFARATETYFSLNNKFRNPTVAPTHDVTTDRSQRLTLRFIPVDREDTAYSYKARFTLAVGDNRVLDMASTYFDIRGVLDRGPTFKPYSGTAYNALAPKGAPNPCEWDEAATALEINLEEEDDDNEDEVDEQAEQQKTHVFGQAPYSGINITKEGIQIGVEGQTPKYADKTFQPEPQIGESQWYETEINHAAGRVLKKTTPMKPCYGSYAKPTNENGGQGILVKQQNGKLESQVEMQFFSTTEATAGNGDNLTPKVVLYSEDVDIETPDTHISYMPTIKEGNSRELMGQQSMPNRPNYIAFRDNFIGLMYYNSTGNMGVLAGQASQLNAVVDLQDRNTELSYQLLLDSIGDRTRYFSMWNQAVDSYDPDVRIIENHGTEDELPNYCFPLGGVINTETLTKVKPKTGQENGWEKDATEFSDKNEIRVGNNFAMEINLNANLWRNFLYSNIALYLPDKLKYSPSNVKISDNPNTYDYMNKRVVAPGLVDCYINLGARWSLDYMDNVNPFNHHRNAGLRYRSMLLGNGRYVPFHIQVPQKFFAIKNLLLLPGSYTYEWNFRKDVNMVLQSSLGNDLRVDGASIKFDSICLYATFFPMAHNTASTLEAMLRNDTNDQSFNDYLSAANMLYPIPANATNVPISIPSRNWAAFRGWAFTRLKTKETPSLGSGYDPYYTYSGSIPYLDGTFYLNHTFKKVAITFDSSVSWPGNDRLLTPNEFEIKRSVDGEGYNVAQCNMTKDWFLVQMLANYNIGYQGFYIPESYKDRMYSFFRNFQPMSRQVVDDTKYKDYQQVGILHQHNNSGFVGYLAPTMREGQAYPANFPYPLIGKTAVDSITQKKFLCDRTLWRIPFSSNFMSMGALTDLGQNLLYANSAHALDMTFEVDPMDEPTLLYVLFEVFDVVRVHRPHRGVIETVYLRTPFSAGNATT
In words: SPR; Ad virions immobilised on the chip, probed with soluble FX in serial two-fold dilutions from 0.4 to 25 μg/ml, in duplicates. To be noted: both partners purified. (Surface plasmon resonance follows binding to a sensor surface in real time, without labels.)

B1: blood coagulation factor X (natural protein)
chain 1: ANSFLEEMKKGHLERECMEETCSYEEAREVFEDSDKTNEFWNKYKDGDQCETSPCQNQGKCKDGLGEYTCTCLEGFEGKNCELFTRKLCSLDNGDCDQFCHEEQNSVVCSCARGYTLADNGKACIPTGPYPCGKQTLER
chain 2: SVAQATSSSGEAPDSITWKPYDAADLDPTENPFDLLDFNQTQPERGDNNLTRIVGGQECKDGECPWQALLINEENEGFCGGTILSEFYILTAAHCLYQAKRFKVRVGDRNTEQEEGGEAVHEVEVVIKHNRFTKETYDFDIAVLRLKTPITFRMNVAPACLPERDWAESTLMTQKTGIVSGFGRTHEKGRQSTRLKMLEVPYVDRNSCKLSSSFIITQNMFCAGYDTKQEDACQGDSGGPHVTRFKDTYFVTGIVSWGEGCARKGKYGIYTKVTAFLKWIDRSMKTRGLPKAKSHAPEVITSSPLK
modifications: Zymogen FX assumed (not FXa): light chain disulfide-linked to heavy chain with the activation peptide retained. Gamma-carboxylated Gla domain, beta-hydroxy-Asp, N-/O-glycosylation; Ca2+-bound state …
On to B1, for which binding was put at a Kd of 1.5 nM.
